PMC3685215

Molecular target: recombinant type 1 inositol 1,4,5-trisphosphate receptor, N-terminally tagged with ECFP (rat) (UniProt P29994)
Assay: SEC; Calibrated Superose 6 10/300 GL gel filtration, the final purification step; 50 mM Tris/HCl, 150 mM NaCl, 1 mM EDTA, 1 mM dithiothreitol, 5% glycerol, 0.02% DDM, pH 8.3; 4 °C; oligomeric size of the purified receptor

stoichiometry N: 4
Substance: recombinant type 1 inositol 1,4,5-trisphosphate receptor, N-terminally tagged with ECFP (from UniProt P29994 1-2750)
